# Experiments:
# [1] = tested on: brain β-tubulin (taxotere-stabilized brain microtubules, Example VII)
# [2] = tested on: brain α-tubulin (taxotere-stabilized brain microtubules, Example VII)
# [3] = tested on: adult murine brain tubulin
# [4] = tested on: young murine brain tubulin
# [5] = tested on: HeLa tubulin
# [6] = tested on: α-tubulin of taxotere-stabilized mouse brain microtubules
# [7] = tested on: NAP proteins
# [8] = molecular target: α-tubulin of taxotere-stabilized mouse brain microtubules (mouse); assay: cell-based or functional assay
# [9] = molecular target: β-tubulin of taxotere-stabilized mouse brain microtubules (mouse); assay: cell-based or functional assay
substance,measurement,setting,value
GFP-Ttll3Ap (Tetrahymena Ttll3Ap with N-terminal GFP),in vitro tubulin glycylation activity (3H-glycine incorporation),[1],A GFP-Ttll3Ap-enriched extract showed a strong increase in glycylation activity on α- and β-tubulin
same,in vitro tubulin glycylation activity (3H-glycine incorporation),[2],A GFP-Ttll3Ap-enriched extract showed a strong increase in glycylation activity on α- and β-tubulin
GFP-Ttll3Bp (Tetrahymena Ttll3Bp with N-terminal GFP),in vitro tubulin glycylation activity (3H-glycine incorporation),[2],the GFP-Ttll3Bp-enriched extract had increased activity on α-tubulin
GFP-Ttll6Ap (full-length Tetrahymena Ttll6Ap with N-terminal GFP),"in vitro glutamylation of microtubules (3H-glutamate, fluorogram)",[3],Enriched GFP-Ttll6Ap strongly modified microtubules made of adult brain tubulin
same,"in vitro glutamylation of unpolymerized tubulin (3H-glutamate, fluorogram)",[3],enriched GFP-Ttll6Ap did not modify unpolymerized adult brain tubulin
same,"in vitro glutamylation of microtubules (3H-glutamate, fluorogram)",[4],less efficiently microtubules made of young brain tubulin
same,"in vitro glutamylation of microtubules (3H-glutamate, fluorogram)",[5],failed to detectably modify microtubules made of HeLa tubulin
Ttll1p-GFP (Tetrahymena thermophila Ttll1p with an N-terminal GFP),in vitro glutamylase activity of the anti-GFP immunoprecipitate,[6],a glutamylase activity directed mostly toward α-tubulin was co-immunoprecipitated with anti-GFP antibodies from extracts of overexpressing cells
"Ttll6ApΔ710-GFP (truncated Tetrahymena Ttll6Ap, amino acid codons 1-710, with N-terminal GFP)",in vitro glutamylase activity,[7],No in vitro activity toward NAP proteins was detected.
"Ttll6ApΔ710-GFP (truncated Tetrahymena Ttll6Ap, amino acid codons 1-710, with N-terminal GFP) (from UniProt P42212 1-238) (enzyme)","in vitro glutamylase activity of extracts of overexpressing cells, compared to non-induced cells",[8],10 fold
same,"in vitro glutamylase activity of extracts of overexpressing cells, compared to non-induced cells",[9],100 fold
